In the domain aggregation screens of Martell et al. (2025):

Test: soluble fraction after stress (log2 fold change); higher = more stays soluble; pooled small domains, quantitative proteomics
Details: stress: 50 degC
Outline: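 The stress applied to every library was 50°C. These custom libraries of small protein domains were pooled and measured at high throughput with quantitative proteomics as the read-out. Aggregation propensity is expressed as the base-two logarithm of the fold change in how much of each protein remains soluble. The higher the value, the more of that protein stays in solution.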

Sequence | soluble fraction (log2)
HMTNTDYPGKVVPVDPDGKTLKPDGDASYNDKPGTKVKTPTVPGYTAEVPNVEVPVGGGDIKVTYHKKPV | 0.372
HMDDVGYLRKRLQQALAQLSDDLRNTYTLFQIGKQSIKQIAAETGASESLVKVRIHRAKQKLQELLADLQ | -0.987
HMAVIILDEPTLGLDPAVRISLWQAIQSARDSTMSAFLITTHYIKEVADYLSAVKILDHGREVASGNPSAL | -0.302
HMYNSYALTARELELVNYVLKGNSRREMAEDSGLKENTVASYMKRLYRKIKVHSRKELKELFM | -0.0805
HMRSPLYVQIKQHILGDIRKGVWKPGEKLPTELDLAERFGVSVGTVRRAMGGLEDEGIISRREGSGTFVRT | 0.0686
HMKDITAVISKKKGRDYYYIIVSYHLSNGKRVQKWIKTEFSVNGNNKRKLEQKRIEILQEWQNKLV | -0.642
HMEPFEQLLDRITSQTGKEPEEVVARMNELITERFDGNIRPEAALVIVAKRDNIQFMDLLDQLKQALL | -0.516
HMALTQEQLGQRLQDARKSVALTQQEVAEDLGLSRESLAQIEAGSRSVNSLEIVRLARLYGRSLSSILLE | -0.612
HMNPLDGTSVHPESYEAAEKLLKKQGFSLEDISGGKLTGLSLTIKDYARLAKELEIGEITLRDIVKELEK | 0.0193
HMSTISPNAFNFLQQNLNKFSDDAEGKMIKDILSKTTYDEYVKNEKSKTDFNSLLRRQTTTGDDNLNRYIN | 0.0247
HMIKLSTNENTALRLVMERGLVTESELKGLFDNPVAVMESLISKMIETNTHWIHSERSENGEWVYAWQ | -0.456
HMYPMQNYSTIIGVIELRQQSVGYATTQKRYGIGSSTVTLIMKRFKELGLTLEELRAMPPKAVEVAFYPPE | -1.11
HMKELLDRIFLHETMRRVSQDATITFSKKVYEVPQKFIGRQVTVQYDPEDLSRVYVKDLNFPEPVMVYPVQ | -0.843
HMAAVPYQVKITTEDLRIRTGPGTNHDFTGQYTGKGVFTIVEESEGSGAPIWGRLKSGAGWIGIDPSWSVR | -0.706
HMNFTEAEQRFHFLEDQRQRGVLSLEQYRAELAQLRVTDAWGRLWMLQEQTGQWFVFHEGQWRPSQ | -0.124
HMTSAPHHIAAVLRDAIYRGVLEEGGPLHQARIAQSLGVSPIPLREALRLLETEGLVEFRGYRGAFVT | -0.492
HMTSVQDLLRNGDRVGYQNGSTVKYWLEEMGFHKKDLLGYVTVEEYAEALQRGSGNGGVSAIVD | -0.961
HMPVQPMDPSIEHISALTGKQFQAFPGQDHRAHMTAHLNFMSTNIVRNNPAVMGAIQKNILEHISLMAQEQ | 0.153
HMKQDYYSILGVMRDASQEEIKRAYLDAAQRLHPDRNTSAGDTEMFLDVQQAYEVLSNPKRRAQYDATLP | 0.148
HMSTTSYTQFMEDAKAGKIARVDIKGREITVTPTEGSRYVITSPGDLWMVDDLRKDGVQVYGPP | 0.101
HMLKDKLSDKDFDFYKNKIQIQLQGNPTELKELVRRFSSTEEQQILKTIDYMLDNGFLRIDEDNMIYWK | -0.00515
HMEPIAFDNMHNRGIKGTNDWTQYEITLPFSAEAKKIFVAGLLVGKGKAWFDKFEVFLDGKNITDVAQI | 0.124
HMKLASIGDNIHTLRKNKGLTQSQLAGKLGVNVDTISNYEKGVSTPDFDIVEKLVNIFNVDAHSLLFK | 0.127

Sequence | soluble fraction (log2)
HMTLGQHIQALRKEAGYSQEALGEALGVTRQSISKWESDQAIPEVDKLVTLSRLFQVPVGVLLQVEQP | -0.16
HMDLPSSETLKVKLNLAKAYVTIEDFGAARRALDEVLSVSSLVDPDLTIQAKSLLAEIDQRS | -0.0514
HMEINEDEIYEKIMIEIEQDNKVKSTWAKALSQSDGNKDKAESLYISMRFEELKYHQSYQKEELNLKDNQQ | 0.0911
HMNLNESVELGQELLSQALAQLGIRGELSPSTIDKLLAESSAKSMEELYADIGIGKRMPALVARHIFGLMD | -0.43
HMATVNIGNLTFTHKGDYASGTTYAKNDVVYYSTNGNAYIAKQATQGNAPTSTAHWDVFAAGSGG | -0.161
HMKQMNETQQKAFEIYLDSATFETDYKPISEEQLAAKLDALGLKGSSSSINRWKKDFNWAQALQNKVTLAM | -0.11
HMNSKIIVESIIKSKNGIAKVADLVEGGVSRQSIKKMYADGYIKRISRGYYTLTSEPVSSDEQVISS | -0.333
HMIAGHLQEKKGFFYIVLSYPDAAGKRKTKWFPTKLSVKGNKKKAEVMLMDARKTFVPPETPL | -0.501
HMQVDENNINKRIDKYLSENTEYSRSTIQKMIDNGNITVNSKPTKSSYKLELNDIITIDNNFKE | 0.369
HMGDVKLNAIYNFLKEFSALNGFPPSVREIGAKFGIKSTSTVHYYLEKLKQSGVIQQEENKKRAVVIN | -0.369
HMELLSGTVEKVLTSGVLVKLPGGAIGFIPNSEMGTPRGTNHGKMFPAGTPLQVMVVEVNQDRGRITLSR | -1.45
HMTSPLQIHPNPATKHIELGLESPEVVLIKDINGKTVYQELVAPNQYIDIEHLKNGIYFIESKNKFGKLIK | 0.169
HMEIGELITLYRKQAGLTIDELSEKANVPKGTLNKIIGGITKAPTLETMRSIAYALGKKLADFDN | -0.34
HMASAKTVAQSGTYKFAKTTAIKSSASDAASTVGTYYKGNTVNYNAKVTTNGQTWLRYTSYSGAQYYVKVS | -3.18
HMSDGYETLVNMAKPFLNNSKQITENDITDAVNTVSVMLKKRYDMTDEDIRKAVSELLHFYA | -0.057
HMPEDQISYTDLIKQINDGNVEKIKMTVGSTTIKVNLKEQEEPKTAIVPSTQAFIELVQEKVQDGNEITLI | 0.119
HMSLLLTPREASVWASEYLGKKVTSNNIIYLLNYGKIANHSTDLKENLIDKNELKIYYDSTIKSQKH | -0.216
HMNTGIPHQEVIKKLYSFAEGGDWKGLKEELNRIKEYTLFYNSVKELADSFEINRLIEKLKTYIF | 0.0146
HMENKTGEVTVREDSALTLRQGPGTNYEKVGQAYRGDRVDVLEEQNGWYKVKTYDGKEAWASSSYISIV | 0.454
HMIQNTGMMESGDSIRGMALDAGFPLLMVVGYRGWTRKGNTPDSAAVYTEPFLNAFRLNYYLVEHDE | 0.309
HMEVLEGFIEDIKFKSEESGYTVAKLNNRNKSIVIVGTMPFISEGQHVKLTGEWKIHQKFGAQFNVKELEE | -0.347
HMSTGGDLTQRERELLGLMARGLSNQEISKRLTIAMPTVKFHVTNILAKLHADNRTEAVLVALKNKLVAL | -0.748
HMKGPLKDLGPDPVTGKSILVKDGKFGTYVTDGETNATLRRGDIVELLTLERGMELLAEKRARATQ | 0.151

Sequence | soluble fraction (log2)
HMKVSDLIGMLGRVTGELAPTGIVLVGNKTWTAISEDASVIASGEQVQVRSVAGLILTVSHQVD | -2.15
HMGQKNEDESLAKFYVHKKGNQYGPYSLIQIREYLKNNSFSLDDLASWDGQSWKKISQIPNLN | -0.075
HMNTGLSEREHEIAQLVLQGRTYAEIGAELFISPRTAEHHIGQIRRRLAATSRSDLLAKLRVAMNTTEGAG | -1.27
HMVGEQISYIPLKFATASEVVKSLTSMFQQQKGIAPIRIVAEERTNAILLLASEADTARVKNLIAMMDKGV | -0.0246
HMLADEPTGALDSKTSVQIMALLTEIAQDRLVIMVTHNPELADEYATRIVNLRDGVISDDSDPFNP | -0.079
HMQTTVHLSPEEMVIMNALKQESPIDLPILRAQVEMSNKLWDTSMKNLSKLGQLKVEKIGEQVSVSLI | -0.257
HMAHYPGKVNNELVEFIRSEQRKTPHMTLTGLNRKLQRTYDLTLSESTVRKLVEAETILPLAREPD | -0.0739
HMIVVMKTSASERDLQEVIARIEQFGFATRSIVGSERATVSVLGAPLPDSLQEALERMPGVEEVVRITK | -0.344
HMGAIVTGTVVEIRSDVVIVNAGLKSEGVVPIEQFRNEAGELEVSVGDEVKVALDALEDGFGETRLS | -0.329
HMTQFSASSERAGAGGAYRTTLRAMEQNGDLLQISILLPDAVTAKHAATVWPERAQAIYTAILSELLK | -0.446
HMQPDYRVLYSNFSDKDGGAIVAALEKMNVPYKFSEGGSAILVPAGQVHQARLKLAADGLPK | 0.0409
HMSYTYPVARLNHIKGKWYVLVSVPAHLRHLFPNQRDLRRSTGTDDESLAKRKQHALAQEIYDLFD | -0.468
HMHKKQEVQDSIDAAEEFMRASGVPAELITSKRAYAVKAIYADAVDKGTPDEIVKKDGMIVALISQMRS | 0.267
HMEAVGLTPRQGDVLALLLQGKPNKLIARDLNLSVETVKDHVAAVLRALGVSTRTQAVLAVSQMQQQAAQ | -0.248
HMLKFGLSQRELQILALLPTDEPLSILAKSLFISESTLKTHLTHIYRKLGVKNRLQAINVARKAGLLK | -0.283
HMQESTPGEGYKWREDVLLRVMSQNGIDESLRDEFVRHAVNYDIDDNMYLKKAEIESAAEAWVLENS | -0.0581
HMSFKQARFMMDAANGKALAWLYSHAEVLDRKDQGENIEIHVMISPADLSRFVNAFGYQPVQS | -0.2
HMKTKILAPIPGSIMVVDVKVGDTVKVGDRLVQLEAMKMENNITSEKAGKITAVLVTAGQKVLQNEVMIEL | -0.853
HMTDTIALRSVIAESGLKYKALAEIMGLSPYTLQMKIDNESEFKASEIDALANALGMDMQQRDSIFF | -0.701
HMLSPPWYEYHRKVQAMFGRDPEVHIKDLDDLGDGKFSYMILVYNKEKAEAIKAILPQKVEMGNVTIETAI | 0.361
HMKFPIITAKQDSDGKFYWAQTTDKGKTYTFILDGDGKKFPIGGTMPDVKINENGYWSVNGSSTGVLANDL | 0.0311
HMESVQWSVFPSAKYVTIISFDPTTSGGSATAKFKVSDEARSKGFRFRIEAAIGEGIMRSEMYVIEE | 0.0612
